Results taken from article PMC7954794, “Protein context shapes the specificity of SH3 domain-mediated interactions in vivo” (Nature Communications, 2021).

System: Sla1 PPIs
Assay: DHFR-PCA of Sla1 SH3-swapped, -shuffled or -deleted baits (Fig. 2E, 4B, 4D, S5A)
Type: cell-based, Saccharomyces cerevisiae
From the text: The stuffing of YSC84 SH3 rendered the strain sterile and was therefore not used for this study as the assays require crosses. For genes containing two SH3s (BZZ1 and BEM1), a combination of this first stuffer with a second one ([…]) coding for a highly similar linker ([…]) was used, which allowed targeting each SH3 position independently. The two N-terminal domains of SLA1, which are separated by six nucleotides, were stuffed by a single stuffer. Cells containing pCAS were selected via the G418 resistance cassette from the plasmid on YPD plates (YPD + NAT 100 μg/ml (DHFR F[1,2] selection) + G418 200 µg/mL (Bioshop Canada)). Colonies were randomly selected and grown in YPD media without G418 to allow plasmid loss. The correct insertion of the stuffer was validated by PCR and Sanger sequencing. The SH3-swapped, -shuffled, and -mutated strains were constructed following a second CRISPR–Cas9 editing step with the same procedures. The stuffer sequences were targeted by specific gRNAs (one gRNA per stuffer) and replaced by PCR amplified specific SH3 (with 40 bp homology arms) or libraries of mutated SH3 domains for Deep Mutational Scanning (DMS) with 78 bp flanking homology regions. Validation of the SH3 domain insertions was done as we previously described except for DMS libraries (see below).
The overall DHFR-PCA pipeline is based on Tarassov et al.[43] and the procedures have also been published as a visualized protocol. The screens were performed with robotically manipulated pin tools (BM5-SC1, S&P Robotics Inc.). First, the preys were cherry-picked from 96-well plates to omnitrays in a 384 format on YPD + HPH solid media. Plates were then combined into the 1536 format on YPD + HPH. The array was constituted of 575 preys previously shown to interact physically with at least one SH3-containing protein as reported in BioGRID V3.4.16 along with 40 negative controls. The prey array comprised a border of control strains of two rows and two columns corresponding to the PPI between LSM8-DHFR F[1,2] and CDC39-DHFR F[3]. This double border was used to remove border effects. Preys are present in duplicate at a randomized position in the 1536 array (except for YAL041W which is present four times per array). Baits were crossed with two prey plates, resulting in four independent bait–prey tests for each PPI. Baits were grown in liquid YPD + NAT and then transferred on solid YPD + NAT omnitrays. They were then replicated on YPD + NAT omnitrays in 1536 array format. Mating of DHFR F[1,2] baits with DHFR F[3] preys was done on YPD followed by incubation at 30 °C for 48 h. Two diploid selection steps were performed by replicating the plates on YPD + NAT + HPH and incubating them for 48 h at 30 °C. Pictures were taken at the end of the second diploid selection for quality control. All images were acquired with a EOS Rebel T5i camera (Canon). Finally, the diploid cells were replicated on omnitrays containing solid PCA selection media and incubated for 4 days as a first selection step in a spImager custom robotic platform (S&P Robotics Inc.). Cells were replicated for a second PCA selection step and incubated in the same manner. The last time point of the second PCA selection step was used for the data analysis as in previous studies using this method.
A separate DHFR-PCA screen was performed for the Sla1 SH3 shuffling experiment, with the same analysis as previously described. Three plates had no detectable level of background, which correspond to the second plate of the three Sla1 SH3 WT re-insertion controls. They were attributed the average of the background of the three first plates of the same baits. The threshold was also determined based on the distribution of the PCA scores of all PPIs and corresponds to the top 2.75% of all colonies detected in this experiment. […] Almost all true PPIs are from four replicates (96.2%). […]

B1: SLA1 WT¦WT¦WT (protein, UniProt P32790 1-1244, looked up)
Actin cytoskeleton-regulatory …: MTVFLGIYRAVYAYEPQTPEELAIQEDDLLYLLQKSDIDDWWTVKKRVIGSDSEEPVGLVPSTYIEEAPVLKKVRAIYDYEQVQNADEELTFHENDVFDVFDDKDADWLLVKSTVSNEFGFIPGNYVEPENGSTSKQEQAPAAAEAPAATPAAAPASAAVLPTNFLPPPQHNDRARMMQSKEDQAPDEDEEGPPPAMPARPTATTETTDATAAAVRSRTRLSYSDNDNDDEEDDYYYNSNSNNVGNHEYNTEYHSWNVTEIEGRKKKKAKLSIGNNKINFIPQKGTPHEWSIDKLVSYDNEKKHMFLEFVDPYRSLELHTGNTTTCEEIMNIIGEYKGASRDPGLREVEMASKSKKRGIVQYDFMAESQDELTIKSGDKVYILDDKKSKDWWMCQLVDSGKSGLVPAQFIEPVRDKKHTESTASGIIKSIKKNFTKSPSRSRSRSRSKSNANASWKDDELQNDVVGSAAGKRSRKSSLSSHKKNSSATKDFPNPKKSRLWVDRSGTFKVDAEFIGCAKGKIHLHKANGVKIAVAADKLSNEDLAYVEKITGFSLEKFKANDGSSSRGTDSRDSERERRRRLKEQEEKERDRRLKERELYELKKARELLDEERSRLQEKELPPIKPPRPTSTTSVPNTTSVPPAESSNNNNSSNKYDWFEFFLNCGVDVSNCQRYTINFDREQLTEDMMPDINNSMLRTLGLREGDIVRVMKHLDKKFGRENIASIPTNATGNMFSQPDGSLNVATSPETSLPQQLLPQTTSPAQTAPSTSAETDDAWTVKPASKSESNLLSKKSEFTGSMQDLLDLQPLEPKKAAASTPEPNLKDLEPVKTGGTTVPAAPVSSAPVSSAPAPLDPFKTGGNNILPLSTGFVMMPMITGGDMLPMQRTGGFVVPQTTFGMQSQVTGGILPVQKTGNGLIPISNTGGAMMPQTTFGAAATVLPLQKTGGGLIPIATTGGAQFPQTSFNVQGQQQLPTGSILPVQKTANGLISANTGVSMPTVQRTGGTMIPQTSFGVSQQLTGGAMMTQPQNTGSAMMPQTSFNAVPQITGGAMMPQTSFNALPQVTGGAMMPLQRTGGALNTFNTGGAMIPQTSFSSQAQNTGGFRPQSQFGLTLQKTGGIAPLNQNQFTGGAMNTLSTGGVLQQQQPQTMNTFNTGGVMQELQMMTTFNTGGAMQQPQMMNTFNTDGIMQQPQMMNTFNTGGAMQQPQQQALQNQPTGFGFGNGPQQSRQANIFNATASNPFGF
- medrep = log2 median colony size normalized to plate background (PCA score) (prey YAL005C, 4 replicates): 4.576
- medrep = log2 median colony size normalized to plate background (PCA score) (prey YAL005C, 4 replicates, listed as SLA1 WT¦WT¦WT*): 5.708
- medrep = log2 median colony size normalized to plate background (PCA score) (prey YBL007C, 4 replicates): 3.858
- medrep = log2 median colony size normalized to plate background (PCA score) (prey YBL007C, 4 replicates, listed as SLA1 WT¦WT¦WT*): 4.787
- medrep = log2 median colony size normalized to plate background (PCA score) (prey YBR234C, 4 replicates): 4.193
- medrep = log2 median colony size normalized to plate background (PCA score) (prey YBR234C, 4 replicates, listed as SLA1 WT¦WT¦WT*): 5.208
- medrep = log2 median colony size normalized to plate background (PCA score) (prey YCR009C, 2 replicates): 2.175
- medrep = log2 median colony size normalized to plate background (PCA score) (prey YCR030C, 4 replicates): 2.158
- medrep = log2 median colony size normalized to plate background (PCA score) (prey YCR088W, 4 replicates): 3.971
- medrep = log2 median colony size normalized to plate background (PCA score) (prey YCR088W, 4 replicates, listed as SLA1 WT¦WT¦WT*): 4.931
- medrep = log2 median colony size normalized to plate background (PCA score) (prey YDL229W, 4 replicates): 4.158
- medrep = log2 median colony size normalized to plate background (PCA score) (prey YDL229W, 4 replicates, listed as SLA1 WT¦WT¦WT*): 5.378
- medrep = log2 median colony size normalized to plate background (PCA score) (prey YDR129C, 4 replicates): 3.756
- medrep = log2 median colony size normalized to plate background (PCA score) (prey YDR129C, 4 replicates, listed as SLA1 WT¦WT¦WT*): 4.737
- medrep = log2 median colony size normalized to plate background (PCA score) (prey YFL010C, 2 replicates): 3.147
- medrep = log2 median colony size normalized to plate background (PCA score) (prey YFR024C-A, 4 replicates): 3.943
- medrep = log2 median colony size normalized to plate background (PCA score) (prey YFR024C-A, 4 replicates, listed as SLA1 WT¦WT¦WT*): 4.815
- medrep = log2 median colony size normalized to plate background (PCA score) (prey YGL206C, 4 replicates): 3.77
- medrep = log2 median colony size normalized to plate background (PCA score) (prey YGL206C, 4 replicates, listed as SLA1 WT¦WT¦WT*): 4.526
- medrep = log2 median colony size normalized to plate background (PCA score) (prey YGR229C, 4 replicates): 2.045
- medrep = log2 median colony size normalized to plate background (PCA score) (prey YHR016C, 4 replicates): 3.008
- medrep = log2 median colony size normalized to plate background (PCA score) (prey YHR016C, 4 replicates, listed as SLA1 WT¦WT¦WT*): 3.247
- medrep = log2 median colony size normalized to plate background (PCA score) (prey YHR064C, 4 replicates): 3.59
- medrep = log2 median colony size normalized to plate background (PCA score) (prey YHR064C, 4 replicates, listed as SLA1 WT¦WT¦WT*): 4.449
- medrep = log2 median colony size normalized to plate background (PCA score) (prey YIL062C, 4 replicates): 3.558
- medrep = log2 median colony size normalized to plate background (PCA score) (prey YIL062C, 4 replicates, listed as SLA1 WT¦WT¦WT*): 4.388
- medrep = log2 median colony size normalized to plate background (PCA score) (prey YIR006C, 4 replicates): 3.754
- medrep = log2 median colony size normalized to plate background (PCA score) (prey YIR006C, 4 replicates, listed as SLA1 WT¦WT¦WT*): 4.634
- medrep = log2 median colony size normalized to plate background (PCA score) (prey YKL013C, 4 replicates): 3.269
- medrep = log2 median colony size normalized to plate background (PCA score) (prey YKL013C, 4 replicates, listed as SLA1 WT¦WT¦WT*): 3.776
- medrep = log2 median colony size normalized to plate background (PCA score) (prey YKL054C, 4 replicates): 2.47
- medrep = log2 median colony size normalized to plate background (PCA score) (prey YKL054C, 4 replicates, listed as SLA1 WT¦WT¦WT*): 3.124
- medrep = log2 median colony size normalized to plate background (PCA score) (prey YKL117W, 4 replicates): 3.846
- medrep = log2 median colony size normalized to plate background (PCA score) (prey YKL117W, 4 replicates, listed as SLA1 WT¦WT¦WT*): 4.725
- medrep = log2 median colony size normalized to plate background (PCA score) (prey YKL129C, 4 replicates): 2.117
- medrep = log2 median colony size normalized to plate background (PCA score) (prey YLR337C, 4 replicates): 3.738
- medrep = log2 median colony size normalized to plate background (PCA score) (prey YLR337C, 4 replicates, listed as SLA1 WT¦WT¦WT*): 4.734
- medrep = log2 median colony size normalized to plate background (PCA score) (prey YLR370C, 4 replicates): 3.494
- medrep = log2 median colony size normalized to plate background (PCA score) (prey YLR370C, 4 replicates, listed as SLA1 WT¦WT¦WT*): 4.461
- medrep = log2 median colony size normalized to plate background (PCA score) (prey YMR109W, 4 replicates): 2.836
- medrep = log2 median colony size normalized to plate background (PCA score) (prey YMR109W, 4 replicates, listed as SLA1 WT¦WT¦WT*): 3.116
- medrep = log2 median colony size normalized to plate background (PCA score) (prey YNL084C, 4 replicates): 3.76
- medrep = log2 median colony size normalized to plate background (PCA score) (prey YNL084C, 4 replicates, listed as SLA1 WT¦WT¦WT*): 4.641
- medrep = log2 median colony size normalized to plate background (PCA score) (prey YNL138W, 4 replicates): 2.038
- medrep = log2 median colony size normalized to plate background (PCA score) (prey YNL243W, 4 replicates): 3.418
- medrep = log2 median colony size normalized to plate background (PCA score) (prey YNL243W, 4 replicates, listed as SLA1 WT¦WT¦WT*): 4.392
- medrep = log2 median colony size normalized to plate background (PCA score) (prey YOR181W, 4 replicates): 3.933
- medrep = log2 median colony size normalized to plate background (PCA score) (prey YOR181W, 4 replicates, listed as SLA1 WT¦WT¦WT*): 4.903
